We go through 18 sequences from a protein production outcome set (Wang et al. 2014).

This data set in a line: label from the status in PepcDB records.

Take “MSTSQGSPNWPRAERVARLEVLETQILARPAEVYAEVLALWPGLSAAVPSPASPAPDSCPGPSELAAQATALQLLSRCAVLLGEDGAAANHAETGRRLAHDLGLRSLEARCLEVLGVVRGRQGDVKQAAWLLRRSLYLLHALGDTPGQGRLLGRVGDLLERLEEYPQALLFYRAGLAQLPAARPVTAAVQVGLARTLHQLGEYAESQELAAQALAVCQEVGLPQLEAQVQLQQALTQLALGELDASRRHAEQAQALAAPRHAEQAQALAAPLEHTVPGAAAWVLGEAALVRGDLAQAREGLGRAEELANTPPLLARVRGSQSRLYEQLGDPAQALRCLREQRELEQQHRARLAEQRAGLLAEQIRYEVLRREAELQRKRRNERAQAASALRETRVELSRQASHDQLTGLANRSFFYTRARQALDLLAPGRSLGLIVADIDHLKAINDRFGYAVGDLLITELARRLCEAVRPGDLVGRLSGDEFVMLLSDLASPGDLRLVAERLLQQLREPCVCGTELVVPTVSLGYVVAPQDGGDVELLQKRADLALFQAKAQGRNMAVAFAGDMSAEEEERRMLSQDLRHAVRHGQLQLHYQGIFLLPGQRLSGFEALVRWPHPKRGMIPPDRFIALAEESRLILELGRWVLDEACRQARAWQLPERGLTMAVNVSALQFEQSDFVAGVRACLEQHGLPGHSLVLELTESMVHRDPRLAKQTLRELQALGVKVAMDDFGTGYSSLSMLKSLPFGLLKIDREFLQDLSAASEQFAASQQFIEVMVRLAHNLQMRVVAEGVETAEQYDLLCGMGCDEAQGYWLARPLPPAEAAALLPAGAPDSPWPTQSPSSQQARQESPRQSLSED”: the protein production result is recorded as “failed”.

On to “MSTSSTQHAAPAFTGFSSSAQAMSLVAFTTVATITLLLCVMTGPDRDDLEEFYTGYGSLSPMRNGLAIAGDYISAATVLGTGGVIALTGYDGVVLALSTALSLMLLMFLLAEPLRNAGQFTMGDALARRMPGRAVRVTACVVTIAALLPLMLVQLAGTGDLLSFILGFSNDTLKTGCIIGLGALMISYAAIGGMKGTALIQIMKIVMLLGSGAVVAVLILHRFDWDPGALFSAAAAHSGAGPAFLRSGLEFAGGPNPRLDMITTELTVVLGGGCLPHVTMRMYTANSARQVRRSMSWAVPAVALFVLVITVVGFGATALVGREAIAAADPQGNTAYLLGSRAAFGPDVSSAETLLFTTVTTALFLTLLASVAGMILACANSLAHDVFAARVQEMSPRREMTLARLSALAVGVPTILLATLVHHRSLQPLVTLSFCIGASAIAPALVYGLFWRRYTRTGLLCTLIGGTLSVVLLLPGTNLVTGSPAAAFPDADFNWFPFTTTGLATIPLGFLLGWLGTLLSGRQKAEAQRRQYEAVEGWILAGAVRRSG”, for which the protein production result is reported as “failed”. On to “MSTSTSCPIPGGRDQLPDCYSTTPGGTLYATTPGGTRIIYDRKFLLECKNSPIARTPPCCLPQIPGVTTPPTAPLSKLEELKEQETEEEIPDDAQFEMDI”, for which the protein production entry is “failed”. In the case of “MSTSYQHSGPEFTEAQMQAMVDGLFAGASIGAVCNMQQEQLEAGYALAYNLYTAGNYRDAETMFRALCVYDHNDERYWLGLAGCRQAQGDLAGAIDAYGLAGAASALGDPAPFVHAGICYMKLGDTENARNTFAGVPFIGDPDNDTHAAMHRKAEAMLELLAGERP” it was “failed”. On to “MSTTDDSYIVVNNEAAGKVSLKEKWWHVLDTYKVGIIPVPLFVLAGVLIGIDCLSGKLPSDIVVMVATLAFFGFACGEFGKRLPIIGKMGAAAICATFIPSAMVHYGLLPDVVVESTTKFYKSTNILYLYICCIIVGSIMSMNRQTLIQGFMRIFFPMLCGEIAGMLVGMGVGIALGLDPFQIFFFLILPIMAGGVGEGAIPLSIGYATILHMDQGVALGRVLPIVMLGSLTAIILAGVLNQLGKRYPHLTGEGELMPNKGNNLGGSESSAPASAFSGKADVTTIASGALLAILLYMVGMLGHKMIGLPAPVGMLFAAVVVKLAHGVSPKMLEGSQVVYKFFQTSVTYPILFAVGVAITPWQELVNAFTIQNLLVIISTVVTLVGTGFLVGRKIGMHPIDVAIISCCQSGQGGTGDVAILTAGNRMMLMPFAQIATRIGGAINVSISLLVLANFLV”, for which the protein production entry is on record as “failed”.

Take “MSVALPRSPDVDGSLSEAPNRIDVVTFGCRLNTYESEVMRREAESAGLGALQGGAVIFNTCAVTGEAVRQARQAIRKARRDNPGARIIVTGCAAQTEPEKFAAMDEVDLVLGNEEKLKANSYRALPDFGVNDTEKARVNDIFSVRETAGHMVDAIEGRARAFVQVQNGCDHRCTFCIIPYGRGNSRSVPMGAVVEQVKRLAGNGYAEIVLTGVDMTSFGADLPGAPKLGRLVKTILKQVPDVKRLRLSSIDSIEADDDLLDAIATEPRLMPHLHLSLQSGDDMILKRMKRRHLRDQSIRFCEDVRKLRPEIVFGADIIAGFPTETDAMFENSIKIVEECGLTHLHVFPFSPREGTPAARMPQVRREVVKQRAARLRAAGEAAYRRHLSSLPGTRQSILIERDGLGRTEGFTLAALGTGAPGEIVEATITGHDGARLNAVPLAARAA”: the protein production entry is given as “failed”. On to “MSVETQRESLLNAPALLFMSAVVLIAFWILFPRQPAFRDPANLSAKDALSVAYLRVLVQSDPGNAPLRLSFVQVLTEAGMTDEAVLAMEPLQNAPESGLTYEIRLAELKLALQQLYRHPPRDVEASLRRRIGELVPLLLRLADNDKESNQVVLLAEQFGEPSVVAETFEQLAGMQNETRQTKSRWLAFAAKQRLAAAQPRAAAQNFCRAFTFERIARKKTELAKACLGAYLQAGVDREALKAAMQILSAYSSSNADAQLLLLAADVAQPMGDRDHALVWLEQASAHLPADQRLAERVVRLQVSMGLLSEGLARAPMLRASLIPGSERQRLLAHLYDWNGQPDEALALWLSFARHKADEEAETRAFALAQAKPDNEAIVQLLEAVMSRRKLTTTEADAYVKAGLAVAQPSRVEKQLRRHAERFGNPPPILNALVEVLVLQGKPDAALTLYEDMPEIQDGRQRLALARLYEEAGNTQKSFQLLLRDIDSPPPASAEEYWLLLAKVSTQLGQDAYAGQAYEKALALRSNDVEILENLQRLALRHHDEKKSERLARYGWERLKRIEDLQRLMRFSWKRRNWDELDQWLEVAEKLPSAAQARDYWYFQSMRRMAHGEQSAARGALQEILKLQAADPEVTEAMIWLLLAYEKIDRVLLDSVVAPYRAQTASQSTVNPALAEALAAAEQGLGRPVQAAAWFLRSLSTRAGDFLWILALADNMEWAGCPAHANYARFQALEMFASRQNSRIEVKYPSRLAEYFFGSKYLPPKREGTEDAKKQEELQSIRDQWGFGGKLDNADYFALRREVERLELSQWKDFAKAVRNRNEREVERQLALISDHLKRQPAAASHPDMLPLSIDDVDRANRWLAGEPEPNPSDLATELDICRETLTKIREFPVNSEPAKR”, for which the protein production entry is recorded as “failed”. Consider “MSVFTPLARPELETFLAPYGLGRLLDYQGIAAGSENTNYFISLEQGEFVLTLVERGPVQEMPFFIELLDVLHDANLPVPYALRTTDGQALRELAGKPALLQPRLPGKHISEPNTQHCVQIGELLANLHLATREQVLERKTDRGLDWMLSEGRNFLSHLGETQRALLEKSLQEIEDLKPQIMALPRANLHADLFRDNVLFEGTHLTGLIDFYNACSGPMLYDLAIALNDWCSRENGQLDAVRARALLGAYAGLRPFTAAESKLWATMLRIACVRFWLSRLIAAETFAGQDVLIHDPVEFEQRLAERQTPHIALPFAL”, for which the protein production result is “not failed”. In the case of “MSVIKIEKALKLDKVIFVDVRTEGEYEEDHILNAINMPLFKNNEHNEVGTIYKMQGKHEAIQKGFDYVSYKLKDIYLQAAELALNYDNIVIYCARGGMRSGSIVNLLSSLGVNVYQLEGGYKAYRNFVLEYLRHVMDTK” it was “not failed”; in that of “MSVKKERVDVLLVERGLIETREKAKRAIMAGLVYANEMRLDKPGEKISQDTEITVKGQVMPYVSRGGYKLEKALETFHLDLQDKVMIDIGSSTGGFTDCALQNGAKLSYALDVGYNQLAWKLRQDERVVVMERTNFRYVTPADLERGLPQFASIDVSFISLKLILPVLKTMLMPNGDVAALIKPQFEAGREQVGKKGIVRDRKVHEAVVEMIVEFALKEGYDVEGLTFSPITGGDGNIEFLIHLKWHGERENGENHSPISIEQVVTEAHEVLKQKGKGE”, “failed”.

As for “MSVLDISIIIANYNTEEFLRNCLNSIKSTVKNVKYEVIVTDNNSKDDSVTMIKNEFPWVKLIESKINGGFAYANNLAIKESSGKYIFLLNTDTVLLKDVIEKMVNYMDENKDVGLLGPKLLNRDMSHQTSVSGFPSFKREFYHIYKLKNILKIPILKKIIVAMSGKIGSKDVEQYMMNFKSIDEPREVQVLVGAALLVRRNVIDKIGMLDERYFMYYEEIDFCYQANKAGFKAVYYPNGEIIHYIGQAATKSRILEHHHHHH”, the protein production result is reported as “not failed”. “MSVLPCFSLMCSLSLGEVKAVKIKPMLARLQSAMGRDDLIDQMVLLPEPQKGQTTQSINLIVGYDASPNSHTALDIACWIAHQTRLATNQQVTVQAVYVVEDSNTKNRSNILSFAKRLPTIELPPSETKKSSTSVITQPKLTGIKSYLQTDTLTPLQEADRIIWQARTLAEEWQGSFKSHLRFGCVSTELRKVAEFEAADILFLGCKSVYHPLIETLGYNFPCAVLGIPECIDE”: the protein production entry is reported as “failed”.

Turning to “MSVPDNVYLIGTMNTADRSLAGLDIALRRRFDFVEMAPRPDKLTGVKVAEIDISAVLETMNRRIEVLLDREHRLGHAYFMSLENSNDLSRLSNIFRQQIIPLLQEYFFEDWQRIAWILNDHRKDERFRFIVPAPYSVDSLFGDTGQVAQDSKAWRMNEEAFHKPQSYLGLEHHHHHH”, the protein production result is recorded as “not failed”.

For “MSVQKAVKSSHYEAESNMEQDIVRKAWVFKPSGLNFIWGGDSRYWVIPNEDRTPAELKKVSWLEVTGSYDKIEPGKTYRIGFKISFTADATGWDQAPVFMSAKIGKKGRTIWKRIKSVNNNFDKLKGGTGPVNIPDETDGRFEIFVSPKVAINQDTKLQFGLYEVWTGKWKTGLLIYEAFVEEV”, the protein production result is “failed”. In the case of “MSVQLVKGVNLHVIPTEKYKTVRLLVRFNTRLNHETITKRTLLSSLMETNSLNYPNQVKLSERLAELYGASFGIGVSKKGNQHWFNISMNIVNDHYLQDSQVLAEAVDFLKEIIFAPNIQAGQFEAETFQREKENLKAYLESIVEDKQTYASLALQSVYFNQSEDQKIPSFGTVAALAEETAASLAAYYQKMLAEDQVDIFVLGDVNEAELVPLFKQLPFTPREEGKAAIFYNQPIRNVIEERTEREVLAQSKLNLAYNTDIYYGDSYYFALQVFNGIFGGFPHSKLFMNVREKEHLAYYASSSIDTFRGFMTVQTGIDGKNRNQVLRLISTELENIRLGKIRELEIEQTKAMLKNQYILALDNAGAWLEKEYLNELMPQTMLTAEEWIARINAVTIPEIQEVAKRLELQAIFFLEGETEND”, the protein production entry is on record as “not failed”.

As to “MSVSIAYLAVLLIWSTTPLGIVWSSESINPSLAVLLRMLIALVLGALVIKIRNIHIPWHKQAVKLYSFSALGIFGGMLCSYLSAAYLSSGIISLVFGLSPVISALLAKKILSEPNISGMRKFSMAISLIGLAVVCSDNFTLADDGIYGIIFILMAVFFFSLSGVLVKSVSLAIHPLATTVGALSVATPLFLVSWLLLDGTLPIETWQAKSLWATLYLGVFGSLIGFYAYFTVLQKLSASNVTLITLITPVIALTLGAVLNGEVINDKLILGAFMVLLGLSIYHFGHLLPRLKKKRARS”, the protein production result is “failed”. With “MSVTFSYLAETDYPVFTLGGSTADAARRLAASGCACAPVLDGERYLGMVHLSRLLEGRKGWPTVKEKLGEELLETVRSYRPGEQLFDNLISVAAAKCSVVPLADEDGRYEGVVSRKRILGFLAERI”, the protein production entry was “not failed”. Turning to “MSVTFSYLAETDYPVFTLGGSTADAARRLAASGCACAPVLDGERYLGMVHLSRLLEGRKGWPTVKEKLGEELLETVRSYRPGEQLFDNLISVAAAKCSVVPLADEDGRYEGVVSRKRILGFLAERIHSGEGGLTMEIEVPPTGAKLSEIIETIEKNDASILSFTSWTTGEGRIIFFRVATHDFFRLVRNMENYGYLIRYHSAFPNAGYDELREKALEFIHYMDM”, the protein production result is recorded as “not failed”.
